In US20260191905A1 (MODERNATX, published 2026):
Positions count from the first letter of the chain named. Each block holds one binder with its values, some of them ahead of it.

How the values were obtained:
[1] = target: T1, human GPC3 recombinant protein (human, UniProt P51654 25-559); assay: SPR (Biacore), summary table; Chi2 0.207; Profile 'Very good'
T1 construct: also called huGPC3; Human GPC3 protein
Procedure: (§1) Affinities of the 19 VHH-His tagged domains were then determined by BiaCore assay. Human GPC3 protein (Sino biological cat. nr. 10088-H08H-500) was immobilized on CM5 sensor chip (GE Healthcare) as antigen. Purified VHH-His tagged domains were diluted in BiaCore buffer (0.01 M HEPES pH 7.4, 0.15 M NaCl, 3 mM EDTA, 0.05% P20) to 500 nM and injected over 2 minutes at […] followed by a half dilution series to 7.8 nM. 10 μl of 10 mM NaOH/1M NaCl were injected between samples and then off-rate wash was 5 minutes.

[2] = target: T2, human GPC3 on HepG2 cells (human, UniProt P51654 25-554); assay: FACS, phage-displayed clone on HepG2, well E4; same clone on A-431 (no GPC3): 2.08%
T2 construct: whole, on cells
T2 sequence (P51654 25-554 limits assumed): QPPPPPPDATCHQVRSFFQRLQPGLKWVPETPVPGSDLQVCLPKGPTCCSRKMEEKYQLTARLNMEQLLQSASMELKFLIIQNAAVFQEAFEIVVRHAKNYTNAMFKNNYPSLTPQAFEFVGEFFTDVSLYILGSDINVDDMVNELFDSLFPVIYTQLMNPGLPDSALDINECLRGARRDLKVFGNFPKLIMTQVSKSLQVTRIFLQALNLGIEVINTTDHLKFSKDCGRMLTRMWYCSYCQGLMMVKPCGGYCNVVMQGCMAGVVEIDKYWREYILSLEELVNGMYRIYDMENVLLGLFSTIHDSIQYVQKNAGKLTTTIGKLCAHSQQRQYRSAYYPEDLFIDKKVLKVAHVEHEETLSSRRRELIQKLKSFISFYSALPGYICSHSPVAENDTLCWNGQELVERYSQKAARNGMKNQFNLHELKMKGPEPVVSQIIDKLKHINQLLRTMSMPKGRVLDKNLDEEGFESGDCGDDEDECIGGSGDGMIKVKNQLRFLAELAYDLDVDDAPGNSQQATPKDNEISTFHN

[3] = target: T2, human GPC3 on HepG2 cells; assay: FACS, phage-displayed clone on HepG2, well E4; same clone on A-431 (no GPC3): 1163.66
[4] = target: T2, human GPC3 on HepG2 cells; assay: FACS, periplasmic extract 1:5 + anti-c-myc + GAM-APC on HepG2, well E4; same on A-431: 0.25%
[5] = target: T2, human GPC3 on HepG2 cells; assay: FACS, periplasmic extract 1:5 + anti-c-myc + GAM-APC on HepG2, well E4; same on A-431: 760.97
[6] = target: T1, human GPC3 recombinant protein; assay: SPR (Biacore) off-rate screen, periplasmic extract over human GPC3 on CM5; R0 61.6
Procedure: (§2) Human GPC3 protein in acetate buffer, pH 5.0, was immobilized in a sensor chip CM5 (GE Healthcare; Cat. Nr. BR-1005-30; Lot. Nr.10245232) and successful immobilization was confirmed by using a commercially available human GPC3 antibody (R&D cat. nr. MAB2119) and the anti-GPC3-VHH-Fc (both at 10 μg/mL). Periplasmic extracts from the MP were diluted in Biacore Buffer (0.01 M HEPES pH 7.4, 0.15 M NaCl, 3 mM EDTA, 0.05% P20) and injected over 2 minutes at 30 μL/min. 10 μl of 10 mM NaOH/1M NaCl were injected between samples and off-rates were measured over 5 minutes. Off-rate ([…]) were calculated using BIACORE software 1:1 interaction Langmuir binding model.

[7] = target: T1, human GPC3 recombinant protein; assay: SPR (Biacore), VHH-His over human GPC3 on CM5; fit 62.5 - 7.8 nM; Rmax 22.5 RU; Chi2 0.207
Procedure: as §1

[8] = target: T2, human GPC3 on HepG2 cells; assay: FACS, phage-displayed clone on HepG2
Procedure: Binding of phage with surface expressed VHH domains to HepG2 cells was assessed using FACS. […] The cell suspension was distributed throughout at 96-well, U-bottom plate (85 μL/well) and incubated with phage (15 μL) on ice for 60 minutes with shaking.

[9] = target: T1, human GPC3 recombinant protein; assay: SPR (Biacore) off-rate screen, periplasmic extract over human GPC3 on CM5; R0 29.7
Procedure: as §2

[10] = target: T2, human GPC3 on HepG2 cells; assay: FACS, phage-displayed clone on HepG2, well B4; same clone on A-431 (no GPC3): 1.12%
[11] = target: T2, human GPC3 on HepG2 cells; assay: FACS, phage-displayed clone on HepG2, well B4; same clone on A-431 (no GPC3): 1095.02
[12] = target: T2, human GPC3 on HepG2 cells; assay: FACS, periplasmic extract 1:5 + anti-c-myc + GAM-APC on HepG2, well B4; same on A-431: 0.54%
[13] = target: T2, human GPC3 on HepG2 cells; assay: FACS, periplasmic extract 1:5 + anti-c-myc + GAM-APC on HepG2, well B4; same on A-431: 873.16
[14] = target: T1, human GPC3 recombinant protein; assay: SPR (Biacore) off-rate screen, periplasmic extract over human GPC3 on CM5; R0 38.8
Procedure: as §2

[15] = target: T1, human GPC3 recombinant protein; assay: SPR (Biacore) off-rate screen, periplasmic extract over human GPC3 on CM5; R0 40.0
Procedure: as §2

[16] = target: T1, human GPC3 recombinant protein; assay: SPR (Biacore) off-rate screen, periplasmic extract over human GPC3 on CM5; R0 48.2
Procedure: as §2

[17] = target: T1, human GPC3 recombinant protein; assay: SPR (Biacore), summary table; Chi2 0.466; Profile 'Good'
[18] = target: T1, human GPC3 recombinant protein; assay: SPR (Biacore) off-rate screen, periplasmic extract over human GPC3 on CM5; R0 46.9
Procedure: as §2

[19] = target: T1, human GPC3 recombinant protein; assay: SPR (Biacore), VHH-His over human GPC3 on CM5; fit 197.5 - 17.34 nM; Rmax 10.9 RU; Chi2 0.466
Procedure: as §1

[20] = target: T1, human GPC3 recombinant protein; assay: SPR (Biacore) off-rate screen, periplasmic extract over human GPC3 on CM5; R0 34.4
Procedure: as §2

[21] = target: T1, human GPC3 recombinant protein; assay: SPR epitope binning on human GPC3
Procedure: The 19 VHH-His tagged domains were then evaluated for epitope-binding site. All VHHs were injected one at a time to evaluate the epitope binding site for each VHH domain. […] Human GPC3 was injected followed by an off rate wash for 4 minutes. No binding is observed if the VHH binds at the same epitope as VHH2, while a second binding event is observed if the VHH binds at a different epitope. All VHHs were binned into two groups based on the epitopes. VHH2 and VHH3 bind the same epitope and all other VHs bind the second epitope (FIG. 19).

[22] = target: T1, human GPC3 recombinant protein; assay: SPR (Biacore) off-rate screen, periplasmic extract over human GPC3 on CM5; R0 36.0
Procedure: as §2

[23] = target: T1, human GPC3 recombinant protein; assay: SPR (Biacore) off-rate screen, periplasmic extract over human GPC3 on CM5; R0 26.5
Procedure: as §2

[24] = target: T1, human GPC3 recombinant protein; assay: SPR (Biacore), summary table; Chi2 0.465; Profile 'Very good'; FIG. 18 prints 6.01E-09
[25] = target: T1, human GPC3 recombinant protein; assay: SPR (Biacore), VHH-His over human GPC3 on CM5; fit 197.5 - 17.34 nM; Rmax 10.9 RU; Chi2 0.465
Procedure: as §1

T1 sequence (P51654 25-559 limits assumed): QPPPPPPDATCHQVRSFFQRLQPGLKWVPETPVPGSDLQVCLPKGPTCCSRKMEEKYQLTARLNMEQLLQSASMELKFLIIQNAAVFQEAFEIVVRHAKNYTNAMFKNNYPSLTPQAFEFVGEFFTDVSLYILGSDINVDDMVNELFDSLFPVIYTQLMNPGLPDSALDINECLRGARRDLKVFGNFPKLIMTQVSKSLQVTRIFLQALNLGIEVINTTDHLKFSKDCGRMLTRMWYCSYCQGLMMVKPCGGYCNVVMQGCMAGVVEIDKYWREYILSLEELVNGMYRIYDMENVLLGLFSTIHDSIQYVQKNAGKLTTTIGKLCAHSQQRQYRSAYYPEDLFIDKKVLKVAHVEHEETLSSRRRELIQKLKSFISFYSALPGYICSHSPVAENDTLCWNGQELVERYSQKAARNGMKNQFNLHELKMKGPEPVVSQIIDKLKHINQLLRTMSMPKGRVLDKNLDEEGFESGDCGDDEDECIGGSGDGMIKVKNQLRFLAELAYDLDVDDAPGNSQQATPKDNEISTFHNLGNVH

- Kd [1]: 3.23 nM
- % of Binding [2]: 60.1%
- Mean FL2-A [3]: 18600
- % of Binding [4]: 0.27%
- Mean FL4-A [5]: 796
- koff [6]: 0.00154 s⁻¹
- Ka [7]: 3.09e+08 M⁻¹
- Kd [7]: 3.23 nM
- koff [7]: 0.00141 s⁻¹
- kon [7]: 435000 M⁻¹ s⁻¹
B1: anti-GPC3 VHH-His tagged domain VHH3 (VHH)
VHH: EVQLVESGGGVVQPGRSLRLSCAASGFTFSNYLMQWVRQAPGKGLVWLSNINSDGSSTDYADSVKGRFTISRDNAKNTLYLQMNSLRAEDTAVYYCRVGAFDYWGQGTLVTVSS
notes: Produced from a mammalian expression vector as a His fusion; not shown: His tag

- binding result [8]: no binding
- koff [9]: 0.0948 s⁻¹
B2: VH32 (VHH)
VHH: QVQLVESGGGLVQPGGSLRLSCAASGFTFSSFAMSWVRQAPGKGLEWVSAISGSGGRTHYADSVKGRFTISRDNSKNTLYLQMNSLRAEDTAVYYCAKEALTGVFDYWGQGTLVTVSS
notes: also called VHH32

- Kd [17]: 6.84 nM
- koff [18]: 0.00457 s⁻¹
- Ka [19]: 1.46e+08 M⁻¹
- Kd [19]: 6.84 nM
- koff [19]: 0.00262 s⁻¹
- kon [19]: 383000 M⁻¹ s⁻¹
B6: anti-GPC3 VHH-His tagged domain VHH7 (VHH)
VHH: EVQLVESGGGLVQPGGSLRLSCAASGFTFSSYAMSWVRQAPGKEPEWVSSISGGGSSTYYADSLKGRFTISRDNSKNTLYLQMNSLRAEDTAVYYCSRDPRFGEPPFDYWGQGTTVTVSS
notes: as for B1

- binding result [21]: binds
B8: anti-GPC3 VHH-His tagged domain VHH19 (VHH)
VHH: B6 VHH with V2E, S56G, S97A, F102Y, W110R, G111C
notes: as for B1

- koff [23]: 0.00247 s⁻¹
- Kd [24]: 4.29 nM
- Ka [25]: 1.66e+08 M⁻¹
- Kd [25]: 6.01 nM
- koff [25]: 0.00167 s⁻¹
- kon [25]: 278000 M⁻¹ s⁻¹
B10: anti-GPC3 VHH-His tagged domain VHH1 (VHH)
VHH: B6 VHH with S56T, K65E, R98K
notes: as for B1

Second part, the binder before the results:

B3: VH29 (VHH)
VHH: B6 VHH with E1Q, T115L
notes: also called VHH29
- % of Binding [10]: 35.7%
- Mean FL2-A [11]: 11100
- % of Binding [12]: 1.43%
- Mean FL4-A [13]: 931
- koff [14]: 0.00493 s⁻¹

B4: VH27 (VHH)
VHH: B6 VHH with T115L
notes: also called VHH27
- koff [15]: 0.00387 s⁻¹

B5: VH21 (VHH)
VHH: B6 VHH with E1Q, V48I, G54S, R98K, T115L
notes: also called VHH21
- koff [16]: 0.00269 s⁻¹

B7: VH26 (VHH)
VHH: B6 VHH with V48I, G54S, R98K, T115L
notes: also called VHH26
- koff [20]: 0.00379 s⁻¹

B9: VH36 (VHH)
VHH: B6 VHH with E1Q
notes: also called VHH36
- koff [22]: 0.00566 s⁻¹
